Where “and” joins values, the source holds several entries; their conditions need not be identical. Equal values may be shown once.
Columns and labels:
[1] = target: T1, deoxyadenosine kinase (dAK) (Giardia duodenalis, UniProt A8B9V6); test: X-ray crystal structure at […] Å (co-purified ligand); HPLC of bound nucleotides; enzyme inhibition; type: binding; set-up: gene GL50803_0017451; full-length dAK (untagged after TEV cleavage)
T1 sequence (A8B9V6 1-251): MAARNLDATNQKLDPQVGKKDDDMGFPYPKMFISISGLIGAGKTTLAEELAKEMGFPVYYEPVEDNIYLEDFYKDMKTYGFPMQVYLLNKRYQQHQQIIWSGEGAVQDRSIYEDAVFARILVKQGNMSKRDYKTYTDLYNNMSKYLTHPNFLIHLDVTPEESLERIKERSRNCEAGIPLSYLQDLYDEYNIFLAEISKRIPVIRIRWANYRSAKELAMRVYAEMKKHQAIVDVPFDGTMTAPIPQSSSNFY

[2] = target: T1, deoxyadenosine kinase (dAK); test: enzyme inhibition kinetics with purified dAK; co-purified dATP seen by HPLC; type: biochemical; set-up: gene GL50803_0017451; full-length dAK
[3] = target: Giardia intestinalis deoxyadenosine kinase lacking the N- and C-termini (dAK-ΔNΔC, amino acids 30-232) (Giardia intestinalis (assemblage A isolate WB)); test: mass photometry; Refeyn 2MP, protein in PBS; 50 nM by the methods, 65 nM by the results
[4] = target: Giardia intestinalis deoxyadenosine kinase lacking the N-terminus (dAK-ΔN, amino acids 30-251) (Giardia intestinalis (assemblage A isolate WB)); test: as above
[5] = target: Giardia intestinalis deoxyadenosine kinase (Giardia intestinalis (assemblage A isolate WB)); test: crystal structure + cryo-EM structure
[6] = target: Giardia intestinalis deoxyadenosine kinase (Giardia intestinalis (assemblage A isolate WB)); test: mass photometry; Refeyn 2MP, protein in PBS; 50 nM by the methods, 65 nM by the results
[7] = target: Giardia intestinalis deoxyadenosine kinase (Giardia intestinalis (assemblage A isolate WB)); test: SEC; Superdex 200 10/300 GL, 150 mM KCl, 50 mM Tris-HCl pH 7.6, 0.4 ml/min; protein at 0.1 mg/ml (4 μM); mass from a standard curve
[8] = target: Giardia intestinalis deoxyadenosine kinase lacking the C-terminus (dAK-ΔC, amino acids 1-232) (Giardia intestinalis (assemblage A isolate WB)); test: mass photometry; Refeyn 2MP, protein in PBS; 50 nM by the methods, 65 nM by the results
purified protein [9] = substrate: Nc1nc(Cl)nc2c1ncn2[C@H]1C[C@H](O)[C@@H](CO)O1; test: purified protein; settings: ATP and Mg2+ (phosphate donor in assay) active site (2-Cl towards F72, modelled)
purified protein [10] = substrate: Nc1ncnc2c1ncn2[C@H]1C[C@H](O)[C@@H](CO)O1; test: purified protein; settings: ATP and Mg2+ (phosphate donor in assay) active site
[11] = substrate: Nc1nc(Cl)nc2c1ncn2[C@@H]1O[C@H](CO)[C@@H](O)[C@@H]1F; test: steady-state kinetics with purified enzyme, HPLC (KM); type: biochemical, Giardia duodenalis; settings: ATP and Mg2+ (phosphate donor in assay)
[12] = substrate: Nc1nc(F)nc2c1ncn2[C@@H]1O[C@H](CO)[C@@H](O)[C@@H]1O; test: as above; type: biochemical, Giardia duodenalis; settings: ATP and Mg2+ (phosphate donor in assay)
[13] = substrate: Nc1nc(I)nc2c1ncn2[C@H]1C[C@H](O)[C@@H](CO)O1; test: as above; type: biochemical, Giardia duodenalis; settings: ATP and Mg2+ (phosphate donor in assay)
[14] = substrate: Nc1ncnc2c1ncn2[C@@H]1O[C@H](CO)[C@@H](O)[C@@H]1F; test: as above; type: biochemical, Giardia duodenalis; settings: ATP and Mg2+ (phosphate donor in assay)
[15] = substrate: Nc1ncnc2c1ncn2[C@@H]1O[C@H](CO)[C@@H](O)[C@@H]1O; test: as above; type: biochemical, Giardia duodenalis; settings: ATP and Mg2+ (phosphate donor in assay)

Nc1ncnc2c1ncn2[C@H]1C[C@H](O)[C@@H](COP(=O)(O)O)O1 [dAMP, deoxyadenosine monophosphate]
X-ray crystal structure at 2.1 Å (co-purified ligand); HPLC of bound nucleotides [1]: the density for active site II unambiguously allowed for the placement of a dAMP

Nc1ncnc2c1ncn2[C@H]1C[C@H](O)[C@@H](COP(=O)(O)OP(=O)(O)OP(=O)(O)O)O1 [dATP, deoxyadenosine triphosphate]
Ki [2]: 840 ± 220 nM

Giardia intestinalis deoxyadenosine kinase lacking the N- and C-termini (dAK-ΔNΔC, amino acids 30-232) (domain or fragment)
stoichiometry N [3]: 2

Giardia intestinalis deoxyadenosine kinase lacking the N-terminus (dAK-ΔN, amino acids 30-251) (domain or fragment)
stoichiometry N [4]: 4 and 2

Giardia intestinalis deoxyadenosine kinase (enzyme)
stoichiometry N [5]: 4 | stoichiometry N [6]: 4 | stoichiometry N [7]: 4

Giardia intestinalis deoxyadenosine kinase lacking the C-terminus (dAK-ΔC, amino acids 1-232) (domain or fragment)
stoichiometry N [8]: 2 and 4

B1: deoxyadenosine kinase (dAK) (Giardia lamblia ATCC 50803) (protein)
chain: MAARNLDATNQKLDPQVGKKDDDMGFPYPKMFISISGLIGAGKTTLAEELAKEMGFPVYYEPVEDNIYLEDFYKDMKTYGFPMQVYLLNKRYQQHQQIIWSGEGAVQDRSIYEDAVFARILVKQGNMSKRDYKTYTDLYNNMSKYLTHPNFLIHLDVTPEESLERIKERSRNCEAGIPLSYLQDLYDEYNIFLAEISKRIPVIRIRWANYRSAKELAMRVYAEMKKHQAIVDVPFDGTMTAPIPQSSSNFY
notes: full-length dAK
Km (purified protein [9]): 0.51 ± 0.08 µM | Vmax (purified protein [9]): 5.78 µmol/min/mg | kcat (purified protein [9]): 2.79 s⁻¹ | kcat/Km (purified protein [9]): 5.48e+06 M⁻¹ s⁻¹ | Km (purified protein [10]): 1.12 ± 0.37 µM | Vmax (purified protein [10]): 10.3 µmol/min/mg | kcat (purified protein [10]): 4.96 s⁻¹ | kcat/Km (purified protein [10]): 4.43e+06 M⁻¹ s⁻¹ | Km [11]: 6.23 ± 1.33 µM | Vmax [11]: 7.26 µmol/min/mg | kcat [11]: 3.51 s⁻¹ | kcat/Km [11]: 563000 M⁻¹ s⁻¹ | Km [12]: 8.40 ± 0.60 µM | Vmax [12]: 7.2 µmol/min/mg | kcat [12]: 3.48 s⁻¹ | kcat/Km [12]: 414000 M⁻¹ s⁻¹ | Km [13]: 4.78 ± 0.17 µM | Vmax [13]: 13.7 µmol/min/mg | kcat [13]: 6.63 s⁻¹ | kcat/Km [13]: 1.39e+06 M⁻¹ s⁻¹ | Km [14]: 2.66 ± 0.11 µM | Vmax [14]: 7.64 µmol/min/mg | kcat [14]: 3.69 s⁻¹ | kcat/Km [14]: 1.39e+06 M⁻¹ s⁻¹ | Km [15]: 6.70 ± 0.07 µM | Vmax [15]: 6.6 µmol/min/mg | kcat [15]: 3.19 s⁻¹ | kcat/Km [15]: 476000 M⁻¹ s⁻¹

— paper PMC11662666 (Nucleic Acids Research, 2024)
